In PMC3348966 (Proteins, 2012):
Where two headings read alike, the source gives them in different places.

Experiments:
XloA = XloA (Thermotoga maritima, UniProt Q9WXT1); assay: p-nitrophenol release at […] nm; format: biochemical; details: data not shown; auxiliary enzyme
purified protein [1] = substrate: CCC(=O)Oc1ccc([N+](=O)[O-])cc1; assay: purified protein; format: biochemical, Thermotoga maritima; details: 50 mM citrate-phosphate pH 6, 70 °C (standard assay)
purified protein [2] = substrate: CC(=O)O[C@@H]1CO[C@@H](Oc2ccc([N+](=O)[O-])cc2)[C@H](O)[C@H]1O; assay: purified protein; format: biochemical, Thermotoga maritima; details: 0.1 M sodium phosphate pH 7, 60 °C, excess XloA
purified protein [3] = substrate: CC(=O)Oc1ccc([N+](=O)[O-])cc1; assay: purified protein; format: biochemical, Thermotoga maritima; details: 50 mM citrate-phosphate pH 6, 70 °C (standard assay)
purified protein [4] = substrate: CC(=O)O[C@@H]1[C@@H](O)[C@H](Oc2ccc([N+](=O)[O-])cc2)OC[C@H]1O; assay: purified protein; format: biochemical, Thermotoga maritima; details: 0.1 M sodium phosphate pH 7, 60 °C, excess XloA
purified protein [5] = substrate: CC(=O)O[C@H]1[C@H](Oc2ccc([N+](=O)[O-])cc2)OC[C@@H](O)[C@@H]1O; assay: purified protein; format: biochemical, Thermotoga maritima; details: 0.1 M sodium phosphate pH 7, 60 °C, excess XloA
crystal structure [6] = biological target: the molecule itself; assay: crystal structure
crystal structure [7] = biological target: the molecule itself; assay: crystal structure; remark: listed apart in the source

## O=[N+]([O-])c1ccc(O[C@@H]2OC[C@@H](O)[C@H](O)[C@H]2O)cc1 [4-nitrophenyl β-D-xylopyranoside]
XloA
  p-nitrophenol release at 405 nm: its activity was confirmed by measuring release of p-nitrophenol from the substrate pNP-Xyl

B1: TM0077 (Thermotoga maritima MSB8) (protein)
chain: MAFFDLPLEELKKYRPERYEEKDFDEFWEETLAESEKFPLDPVFERMESHLKTVEAYDVTFSGYRGQRIKGWLLVPKLEEEKLPCVVQYIGYNGGRGFPHDWLFWPSMGYICFVMDTRGQGSGWLKGDTPDYPEGPVDPQYPGFMTRGILDPRTYYYRRVFTDAVRAVEAAASFPQVDQERIVIAGGSQGGGIALAVSALSKKAKALLCDVPFLCHFRRAVQLVDTHPYAEITNFLKTHRDKEEIVFRTLSYFDGVNFAARAKIPALFSVGLMDNICPPSTVFAAYNYYAGPKEIRIYPYNNHEGGGSFQAVEQVKFLKKLFEKG
Purified protein [1]
  Km: 0.137 ± 0.013 mM
  kcat: 41.3 ± 1.1 s⁻¹
  kcat/Km: 302000 ± 29700 M⁻¹ s⁻¹
Purified protein [2]
  Km: 4.0 ± 0.1 mM
  kcat: 78.6 ± 12.9 s⁻¹
  kcat/Km: 19700 ± 3300 M⁻¹ s⁻¹
Purified protein [3]
  Km: 0.185 ± 0.026 mM
  kcat: 57.5 ± 2.2 s⁻¹
  kcat/Km: 311000 ± 45300 M⁻¹ s⁻¹
Purified protein [4]
  Km: 4.2 ± 0.4 mM
  kcat: 70.1 ± 7.7 s⁻¹
  kcat/Km: 16700 ± 2400 M⁻¹ s⁻¹
Purified protein [5]
  Km: 3.6 ± 0.5 mM
  kcat: 76.1 ± 19.2 s⁻¹
  kcat/Km: 21100 ± 6100 M⁻¹ s⁻¹

B2: native TM0077 (acetyl esterase from Thermotoga maritima) (enzyme, UniProt Q9WXT2 1-325, looked up)
chain: MAFFDLPLEELKKYRPERYEEKDFDEFWEETLAESEKFPLDPVFERMESHLKTVEAYDVTFSGYRGQRIKGWLLVPKLEEEKLPCVVQYIGYNGGRGFPHDWLFWPSMGYICFVMDTRGQGSGWLKGDTPDYPEGPVDPQYPGFMTRGILDPRTYYYRRVFTDAVRAVEAAASFPQVDQERIVIAGGSQGGGIALAVSALSKKAKALLCDVPFLCHFRRAVQLVDTHPYAEITNFLKTHRDKEEIVFRTLSYFDGVNFAARAKIPALFSVGLMDNICPPSTVFAAYNYYAGPKEIRIYPYNNHEGGGSFQAVEQVKFLKKLFEKG
Crystal structure [6]
  stoichiometry N: 6

B3: TM0077-paraoxon complex (TM0077 with DEP-modified Ser188) (enzyme, Thermotoga maritima, UniProt Q9WXT2 1-325, looked up)
chain: MAFFDLPLEELKKYRPERYEEKDFDEFWEETLAESEKFPLDPVFERMESHLKTVEAYDVTFSGYRGQRIKGWLLVPKLEEEKLPCVVQYIGYNGGRGFPHDWLFWPSMGYICFVMDTRGQGSGWLKGDTPDYPEGPVDPQYPGFMTRGILDPRTYYYRRVFTDAVRAVEAAASFPQVDQERIVIAGGSQGGGIALAVSALSKKAKALLCDVPFLCHFRRAVQLVDTHPYAEITNFLKTHRDKEEIVFRTLSYFDGVNFAARAKIPALFSVGLMDNICPPSTVFAAYNYYAGPKEIRIYPYNNHEGGGSFQAVEQVKFLKKLFEKG
modifications: diethyl-phosphate (DEP) moiety covalently bound to the Oγ atom of Ser188
Crystal structure [6]
  stoichiometry N: 6

B4: TM0077-PMSF complex (TM0077 with PMS-modified Ser188) (enzyme, Thermotoga maritima, UniProt Q9WXT2 1-325, looked up)
chain: MAFFDLPLEELKKYRPERYEEKDFDEFWEETLAESEKFPLDPVFERMESHLKTVEAYDVTFSGYRGQRIKGWLLVPKLEEEKLPCVVQYIGYNGGRGFPHDWLFWPSMGYICFVMDTRGQGSGWLKGDTPDYPEGPVDPQYPGFMTRGILDPRTYYYRRVFTDAVRAVEAAASFPQVDQERIVIAGGSQGGGIALAVSALSKKAKALLCDVPFLCHFRRAVQLVDTHPYAEITNFLKTHRDKEEIVFRTLSYFDGVNFAARAKIPALFSVGLMDNICPPSTVFAAYNYYAGPKEIRIYPYNNHEGGGSFQAVEQVKFLKKLFEKG
modifications: phenylmethyl sulfonyl (PMS) moiety covalently bound to the Oγ atom of Ser188
Crystal structure [6]
  stoichiometry N: 6

B5: selenomethionine-substituted TM0077 (acetyl esterase from Thermotoga maritima) (enzyme, UniProt Q9WXT2 1-325, looked up)
chain: MAFFDLPLEELKKYRPERYEEKDFDEFWEETLAESEKFPLDPVFERMESHLKTVEAYDVTFSGYRGQRIKGWLLVPKLEEEKLPCVVQYIGYNGGRGFPHDWLFWPSMGYICFVMDTRGQGSGWLKGDTPDYPEGPVDPQYPGFMTRGILDPRTYYYRRVFTDAVRAVEAAASFPQVDQERIVIAGGSQGGGIALAVSALSKKAKALLCDVPFLCHFRRAVQLVDTHPYAEITNFLKTHRDKEEIVFRTLSYFDGVNFAARAKIPALFSVGLMDNICPPSTVFAAYNYYAGPKEIRIYPYNNHEGGGSFQAVEQVKFLKKLFEKG
modifications: selenomethionine-substituted (selenomethionine in place of methionine)
Crystal structure [7]
  stoichiometry N: 6
